# Source: patent US11254745
# Assays:
# [1] = biological target: extracellular domain of hCD4 fused with human Fc tag (hCD4-hFc) (human) (UniProt P01730); assay: ELISA on human CD4, OD450; fitted EC50 of the control in the table under the graph (unit from the graph's axis)
# [2] = biological target: extracellular domain of hCD4 fused with human Fc tag (hCD4-hFc) (human) (UniProt P01730); assay: ELISA on plate-coated CD4-hFc, OD450; fitted EC50 of the negative control in the table under the graph (unit from the graph's axis)
EC50 [1],EC50 [2],Substance
0.78 µg/mL,–,hIgG1 (antibody)
4.48 µg/mL,–,Isotype IgG1 (antibody)
–,0.542 µg/mL,mIgG1 (antibody)
